Assay results: US20170037146A1 (GENOR BIOPHARMA, published 2017)
Residue numbers refer to the chain shown, from its start.

B1: GB235-019 recombinant full-length IgG1 isotype antibody (wild type) (antibody, V domains shown)
VH: EVQLVQSGAEVKKPGAPVKVSCKASGYTFTSYDINWVRQATGQGLEWMGWMNPNSGNTGYAQKFQGRVTMTRNTSISTAYMELSSLRSEDTAVYYCARGYYLSRGDFWGQGTLVTVSS
VL: DIQMTQSPSSVSASVGDRVTITCRASQGISSWLAWYQQKPGKAPKLLIYAASSLQSGVPSRFSGSGSGTDFTLTISSLQPEDFATYYCQQANSFPLTFGGGTKVEIKR
modifications: N-linked glycan at Asn73 (Fab framework region 3)
notes: Full-length IgG1 expressed in FreeStyle 293F cells; Derived from scFv clone WG1-019; also called GB235-019WT; GB235-019 wild-type antibody
B2: GB235-019N73D mutated antibody (antibody, human IgG1, kappa, V domains shown)
VH: B1 VH with N73D
VL: B1 VL
notes: full-length IgG1
B3: GB235-019S75A mutated antibody (antibody, human IgG1, kappa, V domains shown)
VH: B1 VH with S75A
VL: B1 VL
notes: full-length IgG1; also called GB235-019575A
B4: GB235-019N73Q mutated antibody (antibody, human IgG1, kappa, V domains shown)
VH: B1 VH with N73Q
VL: B1 VL
notes: full-length IgG1

molecular target: T1, Human HER2 antigen (Sino Biological Inc., catalog number 10004-H08H) (human, UniProt P04626 23-652); assay: ELISA on coated human HER2 antigen, anti-human IgG Fc-HRP detection
T1 construct: Bought antigen coated on the ELISA plate
Description: Human HER2 antigen (purchased from Sino Biological Inc., catalog number: 10004-H08H) was diluted to 1 μg/ml using PBS buffer, and added to an ELISA plate at 100 μl/well to perform coating at 4° C. overnight. The plate was washed with PBST for four times, then 5% BSA (purchased from Amresco, USA, catalog number: 0332-100g, the solution being PBS) was added at 300 μl/well to perform blocking at room temperature for 1 hour. […] Each of the dilutions was added to an ELISA plate at 100 μl/well and incubated at room temperature for 1 hour. The plate was washed with PBST for four times, then HRP-labeled goat anti-human IgG Fc antibody (purchased from CalBiochem Inc., USA, catalog number: AP113A-K) was diluted at 1:10000 with PBS buffer, and added to the ELISA plate at 100 μl/well to perform incubation at room temperature for 1 hour. The plate was washed with PBST for four times, then a solution of 3,3′,5,5′-tetramethylbenzidine substrate (purchased from Tiangen Co., Ltd., catalog number: PA107-01) was added at 100 μl/well to perform incubation at room temperature for 15 minutes for visualization. A stop solution (1 M sulfuric acid) was added at 50 μl/well, and absorbance value was read at 450/630 nm wavelength on an M5 multi-functional ELISA plate (Molecular Devices Inc., USA).

| Binder | binding result |
| --- | --- |
| B1 | binds |
| B2 | binds |
| B3 | binds |
| B4 | binds |
